Molecular target: human FLT3 on transfected CHO cells (human) (UniProt P36888)
Assay: FACS, scFv on CHO-human FLT3 cells pre-incubated with FLT3 ligand (competitor)

Row | median [+ligand]/median [w/o ligand]*100 [%] | Binder
1 | > 75 | FL-45 (scFv) scFv: QVTLKESGPALVKPTQTLTLTCTFSGFSLSNARMGVSWIRQPPGKCLEWLAHIFSNDEKSYRTSLKSRLTISKDTSKSQVVLTMTNMDPVDTATYYCARIVGYGSGWYAYFDYWGQGTLVTVSSGGGGSGGGGSGGGGSDIQMTQSPSSLSASVGDRVTITCRASQGIRNDLGWYQQKPGKAPKRLIYAASSLQSGVPSRFSGSGSGTEFTLTISSLQPEDFATYYCLQHNSYPLTFGCGTKVEIK
2 | > 75 | FL-47 (scFv) scFv: QVTLKESGPALVKPTQTLTLTCTFSGFSLSNARMGVSWIRQPPGKCLEWLAHIFSNDEKSYSTSLKSRLTISKDTSKSQVVLTMTDMDPEDTATYYCARIVGYGTGWYGFFDYWGQGILVTVSSGGGGSGGGGSGGGGSDIQMTQSPSSLSASVGDRVTITCRTSQGIRNDLGWYQQKPGKAPKRLIYAASSLQSGVPSRFSGSGSGTEFTLTISSLQPEDFATYYCLQHNSYPLTFGCGTKVEIK
3 | > 75 | FL-46 (scFv) scFv: QVTLKESGPVLVKPTQTLTLTCTFSGFSLSNARMGVSWIRQPPGKCLEWLALIYWNDDKRYSPSLKSRLTITKDTSKNQVVLTMTNMDPVDTATYYCARMVGYGSGWYAYFDYWGQGTLVTVSSGGGGSGGGGSGGGGSDIQMTQSPSSLSASVGDRVTITCRASQGIRNDLGWYQQKPGKAPKRLIYAASSLQSGVPSRFSGSGSGTEFTLTISSLQPEDFATYYCLQHNSYPLTFGCGTKVEIK
4 | > 75 | FL-57 (scFv) scFv: QVTLKESGPTLVKPTETLTLTCTFSGFSLRYARMGVSWIRQPPGKALEWLAHISSNDEKSFSTALESRLTISTDTSKSQMVLTMTNVDPVDTATYYCARMPGDSNTWRGFFDYWGQGTLVTVSSGGGGSGGGGSGGGGSEIVMTQSPGTLSLSPGERATLSCRTSQTVTNSYIAWYQQRPGQAPRLLIYGTSTRATGIPDRFSGSGSGTDFTLTISRLEPEDFAVYYCQKYGSSPLTFGGGTKLEIK
5 | > 75 | FL-53 (scFv) scFv: QVQLVESGGGVVQPGRSLRLSCAASGFTFSSYGMHWVRQAPGKCLEWVAVISYDGSNEFYADSVKGRFTISRDNSKNTLYLQMNSLRAEDTAVYYCARGGEITMVRGVIGYYYYGMDVWGQGTTVTVSSGGGGSGGGGSGGGGSDIQMTQSPSSLSASVGDRVTITCRTSQSISSYLNWYQQKPGKAPKLLIYAASSLQSGVPSRFSGSGSGTEFTLTISSLQPEDFATYYCLQHNSYPLTFGCGTKVDIK
6 | > 75 | FL-51 (scFv) scFv: QVTLKESGPTLVKPTETLTLTCTVSGFSLRNVRMGVSWIRQPPGKCLEWLAHISSNDEKSYSTSLRSRLTISTDTSKSQVVLTMTNMDPVDTATYYCARMPGDSNTWRGFFDYWGQGTLVTVSSGGGGSGGGGSGGGGSEIVMTQSPATLSVSPGERATLSCRTSQSVNNNLAWYQQKPGQAPRLLIYGASTRATGIPARFSGSGSGTEFTLTISSLQPEDFATYYCLQHNSYPLTFGCGTKVEIK
7 | > 75 | FL-50 (scFv) scFv: QVTLKESGPTLVKPTETLTLTCTVSGFSLSNARMGVSWIRQPPGKCLEWLAHIFSNDEKSYSTSLKSRLTISKDTSKSQVVLTMTNMDPVDTATYYCARIPGYGGNFYYHYYGMDVWGQGTTVTVSSGGGGSGGGGSGGGGSDIQMTQSPSSLSASVGDRVTITCRASQGIRNDLAWYQQKPGKAPKRLIYAASTVQSGVPSRFSGSGSGTEFALTISSLQPEDFATYYCLQHNSFPWTFGCGTKVDIK
8 | > 75 | FL-54 (scFv) scFv: QVQLVESGGGVVQPGRSLRLSCAASGFTFSSYGMHWVRQAPGKCLEWVAVISYDGSNEFYADSVKGRFTISRDNSKNTLYLQMNSLRAEDTAVYYCARGGEITMVRGVIGYYYYGMDVWGQGTTVTVSSGGGGSGGGGSGGGGSEIVMTQSPATLSVSPGERATLSCRASQGVRNNLVWYQQKPGQAPRLLIYGASTRATGIPARFSGSGSGTEFTLTISSLQSEDFATYYCLQHNSYPLTFGCGTKVEIK
9 | > 75 | FL-49 (scFv) scFv: QVTLKESGPTLVKPTETLTLTCTVSGFSLNNARMGVSWIRQPPGKCLEWLAHIFSNDEKSYSTSLKNRLTISKDSSKTQVVLTMTNVDPVDTATYYCARIVGYGTGWFGYFDYWGQGTQVTVSSGGGGSGGGGSGGGGSDIQMTQSPSSLSASVGDRVTITCRASQDIRTDLAWYQQKPGKAPKRLIYAASSLQSGVPSRFSGSGSGTEFTLTISSLQPEDFATYYCLQHNRYPLTFGCGTKVDIK
10 | > 75 | FL-43 (scFv) scFv: QVTLKESGPVLVKPTETLTLTCTVSGFSFRNARMGVSWIRQPPGKCLEWLAHIFSNDEKSYSTSLKSRLTISKDTSKSQVVLTLTNMDPVDTATYFCARMPEYSSGWSGAFDIWGQGTMVTVSSGGGGSGGGGSGGGGSDIQMTQSPSSLSASVGDRVTITCRASQGIRNDLVWYQQKPGKAPKRLIYGTSTLQSGVPSRFSGSGSGTEFTLTISSLQPEDFATYYCLQHNSYPLTFGCGTKVEIK
11 | > 75 | FL-52 (scFv) scFv: QVTLKESGPTLVKPTETLTLTCTFSGFSLRYARMGVSWIRQPPGKCLEWLAHIFSNDEKSYSTSLKSRLTISKDTSKSQVVLTLTNMDPVDTATYFCARMPEYSSGWSGAFDIWGQGTMVTVSSGGGGSGGGGSGGGGSDIQMTQSPSSLSASVGDRVTITCRASQDIRNDLAWYQQKPGKAPKRLIYAASSLQSGVPSRFSGSGSGTEFTLTISSLQPEDFATYYCLQHNSYPLTFGCGTKLEIK
12 | > 75 | FL-44 (scFv) scFv: QVTLKESGPVLVKPTETLTLTCTVSGFSFRNARMGVSWIRQPPGKCLEWLAHIFSNDEKSYSTSLKSRLTISKDTSKSQVVLTLTNMDPVDTATYFCARMPEYSSGWSGAFDIWGQGTMVTVSSGGGGSGGGGSGGGGSDIQMTQSPSSLSASVGDRVTITCRTSQGIRNDLVWYQQKPGKAPKRLIYAASTLQSGVPSRFSGSGSGTEFTLTISSLQPEDFATYFCLQHYSYPLTFGCGTKVEIK
13 | > 75 | FL-56 (scFv) scFv: QVTLKESGPVLVKPTETLTLTCTVSGFSLRNVRMGVSWIRQPPGKALEWLAHIFSNDEKLYTTSLKSRLTISKDTSKSQVVLTMTNMDPEDTATYYCARIVGYGTGWYGYFDYWGQGTQVTVSSGGGGSGGGGSGGGGSDIQMTQSPSSLSASIGDRVTITCRASQDIRDDLGWYQREPGKAPKRLIYATSIRQSGVPSRFSGSGSGTEFTLTISGLQPEDFATYFCLQHHSFPLTFGGGTKVDIK
14 | > 75 | FL-48 (scFv) scFv: QVTLKESGPMLVKPTETLTLTCTFSGFSLRNARMGVSWIRQPPGKCLEWLAHIFWNDEKSYSTSLKSRLTISKDTSKSQVVLTMTNMDPVDTATYYCARIPYYGSGSYNYGMDVWGQGTTVTVSSGGGGSGGGGSGGGGSDIQMTQSPSSLSASVGDRVTITCRASQGIRNDLGWYQQKPGKAPKRLIYAASSLQSGVPSRFSGSGSGTEFTLTISSLQPEDFATYYCLQHNTYPLTFGCGTKVDIK
